Laboratory results reported in patent US20130157953A1, “TREATMENT OF CARDIAC CONDITIONS” (Zealand Pharma A/S, priority 2010, published 2013).
Numbered stars: 1 amine (or outer) side, 2 acyl side, 3 side chain; on linkers, the order of the positions; unused ones are H or OH. Bridge positions count the residues as written; N and C are the ends. Square brackets hold non-standard residues; d marks the D form. Side chains are listed from the residue outwards. * marks the point of attachment. γGlu = O=C(O)[C@H](CCC(=O)[*:2])N[*:1]; Palmitoyl = CCCCCCCCCCCCCCCC(=O)*; Aib = CC(C)(N)C(=O)O

What was measured:
[1] = biological target: human glucagon-like peptide 1 receptor (GLP-1R) (human, UniProt P43220 24-463); test: cell-based or functional assay
[2] = biological target: human glucagon receptor (Glucagon-R) (human, UniProt P47871 26-477); test: cell-based or functional assay
Sequence of human glucagon receptor (Glucagon-R) (P47871 26-477): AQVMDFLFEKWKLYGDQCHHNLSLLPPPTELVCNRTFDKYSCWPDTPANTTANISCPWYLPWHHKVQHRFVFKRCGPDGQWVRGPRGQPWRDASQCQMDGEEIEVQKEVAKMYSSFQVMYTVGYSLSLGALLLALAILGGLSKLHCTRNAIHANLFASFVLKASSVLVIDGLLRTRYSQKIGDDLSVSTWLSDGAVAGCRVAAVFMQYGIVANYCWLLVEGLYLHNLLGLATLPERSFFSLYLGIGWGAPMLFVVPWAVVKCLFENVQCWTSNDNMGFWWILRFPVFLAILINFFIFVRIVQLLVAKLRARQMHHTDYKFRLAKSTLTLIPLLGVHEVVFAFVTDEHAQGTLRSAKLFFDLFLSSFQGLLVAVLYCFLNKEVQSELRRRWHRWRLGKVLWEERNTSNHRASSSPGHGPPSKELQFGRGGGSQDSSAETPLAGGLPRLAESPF

B1: Compound 44 (peptide)
peptide: H-H[dS]QGTFTSDYSKYLDSKAAHDFVEWLLRA-NH2
SMILES: CC(C)C[C@H](NC(=O)[C@H](CC(C)C)NC(=O)[C@H](Cc1c[nH]c2ccccc12)NC(=O)[C@H](CCC(=O)O)NC(=O)[C@@H](NC(=O)[C@H](Cc1ccccc1)NC(=O)[C@H](CC(=O)O)NC(=O)[C@H](Cc1c[nH]cn1)NC(=O)[C@H](C)NC(=O)[C@H](C)NC(=O)[C@H](CCCCN)NC(=O)[C@H](CO)NC(=O)[C@H](CC(=O)O)NC(=O)[C@H](CC(C)C)NC(=O)[C@H](Cc1ccc(O)cc1)NC(=O)[C@H](CCCCN)NC(=O)[C@H](CO)NC(=O)[C@H](Cc1ccc(O)cc1)NC(=O)[C@H](CC(=O)O)NC(=O)[C@H](CO)NC(=O)[C@@H](NC(=O)[C@H](Cc1ccccc1)NC(=O)[C@@H](NC(=O)CNC(=O)[C@H](CCC(N)=O)NC(=O)[C@@H](CO)NC(=O)[C@@H](N)Cc1c[nH]cn1)[C@@H](C)O)[C@@H](C)O)C(C)C)C(=O)N[C@@H](CCCNC(=N)N)C(=O)N[C@@H](C)C(N)=O
[1]
  EC50 (nM) GLP-1R; cAMP content, HEK293 cells expressing human GLP-1R: 0.09 nM
[2]
  EC50 (nM) GuR; cAMP content, HEK293 cells expressing the human glucagon receptor: 0.11 nM

B2: Compound 45 (peptide)
peptide: H-H[Aib]QGTFTSDYSKYLDSKAAHDFVEWLLRA-NH2
SMILES: CC(C)C[C@H](NC(=O)[C@H](CC(C)C)NC(=O)[C@H](Cc1c[nH]c2ccccc12)NC(=O)[C@H](CCC(=O)O)NC(=O)[C@@H](NC(=O)[C@H](Cc1ccccc1)NC(=O)[C@H](CC(=O)O)NC(=O)[C@H](Cc1c[nH]cn1)NC(=O)[C@H](C)NC(=O)[C@H](C)NC(=O)[C@H](CCCCN)NC(=O)[C@H](CO)NC(=O)[C@H](CC(=O)O)NC(=O)[C@H](CC(C)C)NC(=O)[C@H](Cc1ccc(O)cc1)NC(=O)[C@H](CCCCN)NC(=O)[C@H](CO)NC(=O)[C@H](Cc1ccc(O)cc1)NC(=O)[C@H](CC(=O)O)NC(=O)[C@H](CO)NC(=O)[C@@H](NC(=O)[C@H](Cc1ccccc1)NC(=O)[C@@H](NC(=O)CNC(=O)[C@H](CCC(N)=O)NC(=O)C(C)(C)NC(=O)[C@@H](N)Cc1c[nH]cn1)[C@@H](C)O)[C@@H](C)O)C(C)C)C(=O)N[C@@H](CCCNC(=N)N)C(=O)N[C@@H](C)C(N)=O
[1]
  EC50 (nM) GLP-1R; cAMP content, HEK293 cells expressing human GLP-1R: 0.08 nM
[2]
  EC50 (nM) GuR; cAMP content, HEK293 cells expressing the human glucagon receptor: 0.06 nM

## H-HSQGTFTSDYSAYLDSRRAQDFVWLMNT-NH2 [Compound 242]
[1]
  EC50 (nM) GLP-1R; cAMP content, HEK293 cells expressing human GLP-1R: 1.4 nM
[2]
  EC50 (nM) GuR; cAMP content, HEK293 cells expressing the human glucagon receptor: 0.4 nM

B3: Compound 261 (peptide)
peptide: H-HSQGTFTSDYSKYLDSKAAHDFVEWLLKA-NH2
modifications: lactam 24-28
SMILES: CC(C)C[C@@H]1NC(=O)[C@H](CC(C)C)NC(=O)[C@H](Cc2c[nH]c3ccccc23)NC(=O)[C@@H](NC(=O)[C@@H](NC(=O)[C@H](Cc2ccccc2)NC(=O)[C@H](CC(=O)O)NC(=O)[C@H](Cc2c[nH]cn2)NC(=O)[C@H](C)NC(=O)[C@H](C)NC(=O)[C@H](CCCCN)NC(=O)[C@H](CO)NC(=O)[C@H](CC(=O)O)NC(=O)[C@H](CC(C)C)NC(=O)[C@H](Cc2ccc(O)cc2)NC(=O)[C@H](CCCCN)NC(=O)[C@H](CO)NC(=O)[C@H](Cc2ccc(O)cc2)NC(=O)[C@H](CC(=O)O)NC(=O)[C@H](CO)NC(=O)[C@@H](NC(=O)[C@H](Cc2ccccc2)NC(=O)[C@@H](NC(=O)CNC(=O)[C@H](CCC(N)=O)NC(=O)[C@H](CO)NC(=O)[C@@H](N)Cc2c[nH]cn2)[C@@H](C)O)[C@@H](C)O)C(C)C)CCC(=O)NCCCC[C@@H](C(=O)N[C@@H](C)C(N)=O)NC1=O
[1]
  EC50 (nM) GLP-1R; cAMP content, HEK293 cells expressing human GLP-1R: 0.03 nM
[2]
  EC50 (nM) GuR; cAMP content, HEK293 cells expressing the human glucagon receptor: 0.07 nM

B4: Compound 202 (peptide)
peptide: H-HSQGTFTSDYSKYLDK([γGlu-Palmitoyl])KAAHDFVEWLLRA-NH2
SMILES: CCCCCCCCCCCCCCCC(=O)N[C@@H](CCC(=O)NCCCC[C@H](NC(=O)[C@H](CC(=O)O)NC(=O)[C@H](CC(C)C)NC(=O)[C@H](Cc1ccc(O)cc1)NC(=O)[C@H](CCCCN)NC(=O)[C@H](CO)NC(=O)[C@H](Cc1ccc(O)cc1)NC(=O)[C@H](CC(=O)O)NC(=O)[C@H](CO)NC(=O)[C@@H](NC(=O)[C@H](Cc1ccccc1)NC(=O)[C@@H](NC(=O)CNC(=O)[C@H](CCC(N)=O)NC(=O)[C@H](CO)NC(=O)[C@@H](N)Cc1c[nH]cn1)[C@@H](C)O)[C@@H](C)O)C(=O)N[C@@H](CCCCN)C(=O)N[C@@H](C)C(=O)N[C@@H](C)C(=O)N[C@@H](Cc1c[nH]cn1)C(=O)N[C@@H](CC(=O)O)C(=O)N[C@@H](Cc1ccccc1)C(=O)N[C@H](C(=O)N[C@@H](CCC(=O)O)C(=O)N[C@@H](Cc1c[nH]c2ccccc12)C(=O)N[C@@H](CC(C)C)C(=O)N[C@@H](CC(C)C)C(=O)N[C@@H](CCCNC(=N)N)C(=O)N[C@@H](C)C(N)=O)C(C)C)C(=O)O
[1]
  EC50 (nM) GLP-1R; cAMP content, HEK293 cells expressing human GLP-1R: 0.2 nM
[2]
  EC50 (nM) GuR; cAMP content, HEK293 cells expressing the human glucagon receptor: 0.13 nM

B5: Compound 262 (peptide)
peptide: H-HSQGTFTSDYSKYLDSK([γGlu-Palmitoyl])AAHDFVEWLLRA-NH2
SMILES: CCCCCCCCCCCCCCCC(=O)N[C@@H](CCC(=O)NCCCC[C@H](NC(=O)[C@H](CO)NC(=O)[C@H](CC(=O)O)NC(=O)[C@H](CC(C)C)NC(=O)[C@H](Cc1ccc(O)cc1)NC(=O)[C@H](CCCCN)NC(=O)[C@H](CO)NC(=O)[C@H](Cc1ccc(O)cc1)NC(=O)[C@H](CC(=O)O)NC(=O)[C@H](CO)NC(=O)[C@@H](NC(=O)[C@H](Cc1ccccc1)NC(=O)[C@@H](NC(=O)CNC(=O)[C@H](CCC(N)=O)NC(=O)[C@H](CO)NC(=O)[C@@H](N)Cc1c[nH]cn1)[C@@H](C)O)[C@@H](C)O)C(=O)N[C@@H](C)C(=O)N[C@@H](C)C(=O)N[C@@H](Cc1c[nH]cn1)C(=O)N[C@@H](CC(=O)O)C(=O)N[C@@H](Cc1ccccc1)C(=O)N[C@H](C(=O)N[C@@H](CCC(=O)O)C(=O)N[C@@H](Cc1c[nH]c2ccccc12)C(=O)N[C@@H](CC(C)C)C(=O)N[C@@H](CC(C)C)C(=O)N[C@@H](CCCNC(=N)N)C(=O)N[C@@H](C)C(N)=O)C(C)C)C(=O)O
[1]
  EC50 (nM) GLP-1R; cAMP content, HEK293 cells expressing human GLP-1R: 0.11 nM
[2]
  EC50 (nM) GuR; cAMP content, HEK293 cells expressing the human glucagon receptor: 0.12 nM

B6: Compound 203 (peptide)
peptide: H-HSQGTFTSDYSKYLDSKAAHDFVEWLK([γGlu-Palmitoyl])RA-NH2
SMILES: CCCCCCCCCCCCCCCC(=O)N[C@@H](CCC(=O)NCCCC[C@H](NC(=O)[C@H](CC(C)C)NC(=O)[C@H](Cc1c[nH]c2ccccc12)NC(=O)[C@H](CCC(=O)O)NC(=O)[C@@H](NC(=O)[C@H](Cc1ccccc1)NC(=O)[C@H](CC(=O)O)NC(=O)[C@H](Cc1c[nH]cn1)NC(=O)[C@H](C)NC(=O)[C@H](C)NC(=O)[C@H](CCCCN)NC(=O)[C@H](CO)NC(=O)[C@H](CC(=O)O)NC(=O)[C@H](CC(C)C)NC(=O)[C@H](Cc1ccc(O)cc1)NC(=O)[C@H](CCCCN)NC(=O)[C@H](CO)NC(=O)[C@H](Cc1ccc(O)cc1)NC(=O)[C@H](CC(=O)O)NC(=O)[C@H](CO)NC(=O)[C@@H](NC(=O)[C@H](Cc1ccccc1)NC(=O)[C@@H](NC(=O)CNC(=O)[C@H](CCC(N)=O)NC(=O)[C@H](CO)NC(=O)[C@@H](N)Cc1c[nH]cn1)[C@@H](C)O)[C@@H](C)O)C(C)C)C(=O)N[C@@H](CCCNC(=N)N)C(=O)N[C@@H](C)C(N)=O)C(=O)O
[1]
  EC50 (nM) GLP-1R; cAMP content, HEK293 cells expressing human GLP-1R: 0.57 nM
[2]
  EC50 (nM) GuR; cAMP content, HEK293 cells expressing the human glucagon receptor: 0.22 nM

B7: Compound 208 (peptide)
peptide: H-H[Aib]QGTFTSDYSKYLDSK([γGlu-Palmitoyl])AAHDFVEWLLSA-NH2
SMILES: CCCCCCCCCCCCCCCC(=O)N[C@@H](CCC(=O)NCCCC[C@H](NC(=O)[C@H](CO)NC(=O)[C@H](CC(=O)O)NC(=O)[C@H](CC(C)C)NC(=O)[C@H](Cc1ccc(O)cc1)NC(=O)[C@H](CCCCN)NC(=O)[C@H](CO)NC(=O)[C@H](Cc1ccc(O)cc1)NC(=O)[C@H](CC(=O)O)NC(=O)[C@H](CO)NC(=O)[C@@H](NC(=O)[C@H](Cc1ccccc1)NC(=O)[C@@H](NC(=O)CNC(=O)[C@H](CCC(N)=O)NC(=O)C(C)(C)NC(=O)[C@@H](N)Cc1c[nH]cn1)[C@@H](C)O)[C@@H](C)O)C(=O)N[C@@H](C)C(=O)N[C@@H](C)C(=O)N[C@@H](Cc1c[nH]cn1)C(=O)N[C@@H](CC(=O)O)C(=O)N[C@@H](Cc1ccccc1)C(=O)N[C@H](C(=O)N[C@@H](CCC(=O)O)C(=O)N[C@@H](Cc1c[nH]c2ccccc12)C(=O)N[C@@H](CC(C)C)C(=O)N[C@@H](CC(C)C)C(=O)N[C@@H](CO)C(=O)N[C@@H](C)C(N)=O)C(C)C)C(=O)O
[1]
  EC50 (nM) GLP-1R; cAMP content, HEK293 cells expressing human GLP-1R: 0.11 nM
[2]
  EC50 (nM) GuR; cAMP content, HEK293 cells expressing the human glucagon receptor: 0.16 nM

B8: Compound 207 (peptide)
peptide: H-H[Aib]QGTFTSDYSKYLDSK([γGlu-Palmitoyl])AARDFVAWLLRA-NH2
SMILES: CCCCCCCCCCCCCCCC(=O)N[C@@H](CCC(=O)NCCCC[C@H](NC(=O)[C@H](CO)NC(=O)[C@H](CC(=O)O)NC(=O)[C@H](CC(C)C)NC(=O)[C@H](Cc1ccc(O)cc1)NC(=O)[C@H](CCCCN)NC(=O)[C@H](CO)NC(=O)[C@H](Cc1ccc(O)cc1)NC(=O)[C@H](CC(=O)O)NC(=O)[C@H](CO)NC(=O)[C@@H](NC(=O)[C@H](Cc1ccccc1)NC(=O)[C@@H](NC(=O)CNC(=O)[C@H](CCC(N)=O)NC(=O)C(C)(C)NC(=O)[C@@H](N)Cc1c[nH]cn1)[C@@H](C)O)[C@@H](C)O)C(=O)N[C@@H](C)C(=O)N[C@@H](C)C(=O)N[C@@H](CCCNC(=N)N)C(=O)N[C@@H](CC(=O)O)C(=O)N[C@@H](Cc1ccccc1)C(=O)N[C@H](C(=O)N[C@@H](C)C(=O)N[C@@H](Cc1c[nH]c2ccccc12)C(=O)N[C@@H](CC(C)C)C(=O)N[C@@H](CC(C)C)C(=O)N[C@@H](CCCNC(=N)N)C(=O)N[C@@H](C)C(N)=O)C(C)C)C(=O)O
[1]
  EC50 (nM) GLP-1R; cAMP content, HEK293 cells expressing human GLP-1R: 0.12 nM
[2]
  EC50 (nM) GuR; cAMP content, HEK293 cells expressing the human glucagon receptor: 0.17 nM
